What is called stoichiometry N is a count of units in the complex or per binding partner.

Test [1] deals with subunit of the light-harvesting 2 (LH2) complex (Rhodobacter sphaeroides). Description: atomic force microscopy; tapping mode AFM of reconstituted flat LH2 membranes (2D crystals) immobilised on a mica substrate, same approach as for chromatophores.
Test [2] has the same target. The test is described as follows: atomic force microscopy; tapping mode AFM of intact native chromatophore vesicles immobilised on mica; imaging buffer 300 mM KCl/20 mM MOPS pH 7.4, with and without 10 mM MgCl2; proteins in their native membrane.
Test [3] shares this target. The test is described as follows: atomic force microscopy; tapping mode AFM of reconstituted flat LH2 membranes (2D crystals) immobilised on a mica substrate, same approach as for chromatophores. This is another data set of the same source.
For test [4] the target is unchanged. The test is described as follows: atomic force microscopy; tapping mode AFM of intact native chromatophore vesicles immobilised on mica; imaging buffer 300 mM KCl/20 mM MOPS pH 7.4, with and without 10 mM MgCl2; proteins in their native membrane. The source holds these as a separate data set.
For test [5], the target named is reaction center-light harvesting 1-PufX (RC-LH1-PufX) complex (Rhodobacter sphaeroides) (UniProt P0C0Y7). The description is as above.

“subunit of the light-harvesting 2 (LH2) complex”: the stoichiometry N in test [1] amounted to 8.3; in test [2], 9; in test [3], 9; in test [4], 8.6.

“reaction center-light harvesting 1-PufX (RC-LH1-PufX) complex (from UniProt P0C0Y7 1-260; P13402 1-82)” had a stoichiometry N in test [5] of 2.

The values above are taken from publication PMC5269641.
